From PMC7728782, “Heat induces end to end repetitive association in P. furiosusL-asparaginase which enables its thermophilic property” (Scientific Reports, 2020)
One block for each molecule: values may come before it.

Legend:
[1] = biological target: conjoined PfA (cPfA): N-PfA and C-PfA halves of P. furiosus L-asparaginase without the 19-residue linker (Pyrococcus furiosus) (UniProt Q8TZE8); assay: SAXS; protein at 6 mg/mL in a thermostated quartz capillary, 50 °C; association state from I0 of the Guinier analysis against lysozyme
[2] = biological target: conjoined PfA (cPfA): N-PfA and C-PfA halves of P. furiosus L-asparaginase without the 19-residue linker (Pyrococcus furiosus) (UniProt Q8TZE8); assay: SAXS; protein at 6 mg/mL in a thermostated quartz capillary, 80 °C; association state from I0 of the Guinier analysis against lysozyme
[3] = biological target: conjoined PfA (cPfA): N-PfA and C-PfA halves of P. furiosus L-asparaginase without the 19-residue linker (Pyrococcus furiosus) (UniProt Q8TZE8); assay: SAXS; protein at 6 mg/mL in a thermostated quartz capillary, 60 °C; association state from I0 of the Guinier analysis against lysozyme
[4] = biological target: conjoined PfA (cPfA): N-PfA and C-PfA halves of P. furiosus L-asparaginase without the 19-residue linker (Pyrococcus furiosus) (UniProt Q8TZE8); assay: SAXS; protein at 6 mg/mL in a thermostated quartz capillary, 25 °C; association state from I0 of the Guinier analysis against lysozyme
[5] = biological target: conjoined PfA (cPfA): N-PfA and C-PfA halves of P. furiosus L-asparaginase without the 19-residue linker (Pyrococcus furiosus) (UniProt Q8TZE8); assay: SAXS; protein at 6 mg/mL in a thermostated quartz capillary, 70 °C; association state from I0 of the Guinier analysis against lysozyme
[6] = biological target: conjoined PfA (cPfA): N-PfA and C-PfA halves of P. furiosus L-asparaginase without the 19-residue linker (Pyrococcus furiosus) (UniProt Q8TZE8); assay: SAXS; protein at 6 mg/mL in a thermostated quartz capillary, 30 °C; association state from I0 of the Guinier analysis against lysozyme
[7] = biological target: conjoined PfA (cPfA): N-PfA and C-PfA halves of P. furiosus L-asparaginase without the 19-residue linker (Pyrococcus furiosus) (UniProt Q8TZE8); assay: SAXS; protein at 6 mg/mL in a thermostated quartz capillary, 40 °C; association state from I0 of the Guinier analysis against lysozyme
[8] = biological target: defunct cPfA (dcPfA): cPfA truncated beyond D178 of the N-terminal domain (Pyrococcus furiosus) (UniProt Q8TZE8)
[9] = biological target: the molecule itself; assay: SAXS; protein at 6 mg/mL in a thermostated quartz capillary, 25 °C; association state from I0 of the Guinier analysis against lysozyme
[10] = biological target: the molecule itself; assay: SAXS; protein at 6 mg/mL in a thermostated quartz capillary, 30 °C; association state from I0 of the Guinier analysis against lysozyme
[11] = biological target: the molecule itself; assay: SAXS; protein at 6 mg/mL in a thermostated quartz capillary, 50 °C; association state from I0 of the Guinier analysis against lysozyme
[12] = biological target: the molecule itself; assay: SAXS; protein at 6 mg/mL in a thermostated quartz capillary, 40 °C; association state from I0 of the Guinier analysis against lysozyme
[13] = biological target: the molecule itself; assay: SAXS; protein at 6 mg/mL in a thermostated quartz capillary, 80 °C; association state from I0 of the Guinier analysis against lysozyme
[14] = biological target: the molecule itself; assay: crystal structure; cPfA crystallised at 37 °C, 2.36 Å, PDB 5CBP; contacts between symmetry mates

stoichiometry N [1]: 2
stoichiometry N [2]: 12
stoichiometry N [3]: 4
stoichiometry N [4]: 2
stoichiometry N [5]: 8
stoichiometry N [6]: 2
stoichiometry N [7]: 2
Molecule: conjoined PfA (cPfA): N-PfA and C-PfA halves of P. furiosus L-asparaginase without the 19-residue linker (from UniProt Q8TZE8 1-182; Q8TZE8 1-182) (complex)

loss in specific activity of dcPfA relative to cPfA, 45 °C [8]: 38%
loss in specific activity of dcPfA relative to cPfA, 60 °C [8]: 60%
loss in specific activity of dcPfA relative to cPfA, 70 °C [8]: 80%
loss in specific activity of dcPfA relative to cPfA, 80 °C [8]: 90%
Molecule: defunct cPfA (dcPfA): cPfA truncated beyond D178 of the N-terminal domain (from UniProt Q8TZE8 1-178; Q8TZE8 1-178) (complex)

B1: L-asparaginase from Pyrococcus furiosus, full-length wild type (PfA) (enzyme, UniProt Q8TZE8 1-326, looked up)
chain: MKILLIGMGGTIASVKGENGYEASLSVKEVLDIAGIKDCEDCDFLDLKNVDSTLIQPEDWVDLAETLYKNVKKYDGIIVTHGTDTLAYTSSMISFMLRNPPIPIVFTGSMIPATEENSDAPLNLQTAIKFATSGIRGVYVAFNGKVMLGVRTSKVRTMSRDAFESINYPIIAELRGEDLVVNFIPKFNNGEVTLDLRHDPKVLVIKLIPGLSGDIFRAAVELGYRGIVIEGYGAGGIPYRGSDLLQTIEELSKEIPIVMTTQAMYDGVDLTRYKVGRLALRAGVIPAGDMTKEATVTKLMWILGHTNNVEEIKVLMRKNLVGELRD
notes: L-asparaginase of Pyrococcus furiosus, full length, with N-terminal domain, 19-residue linker and C-terminal domain; One protomer; the SAXS rows give the size of the oligomer it forms
stoichiometry N [9]: 2
stoichiometry N [10]: 2
stoichiometry N [11]: 2
stoichiometry N [12]: 2
stoichiometry N [13]: 4

B2: N-PfA, N-terminal domain chain of conjoined PfA (domain or fragment, Pyrococcus furiosus, UniProt Q8TZE8 1-182, looked up)
chain: MKILLIGMGGTIASVKGENGYEASLSVKEVLDIAGIKDCEDCDFLDLKNVDSTLIQPEDWVDLAETLYKNVKKYDGIIVTHGTDTLAYTSSMISFMLRNPPIPIVFTGSMIPATEENSDAPLNLQTAIKFATSGIRGVYVAFNGKVMLGVRTSKVRTMSRDAFESINYPIIAELRGEDLVVN
notes: N-PfA, the N-terminal half of P. furiosus L-asparaginase; ends at residue 182
binding result [14]: binds

specific activity of dcPfA pre-incubated with LVVN peptide (different molar ratios, highest effective 500 µM) against dcPfA alone, 37 °C [8]: 1.66 fold
specific activity of dcPfA pre-incubated with LVVN peptide (different molar ratios, highest effective 500 µM) against dcPfA alone, 45 °C [8]: 1.85 fold
specific activity of dcPfA pre-incubated with LVVN peptide (different molar ratios, highest effective 500 µM) against dcPfA alone, 60 °C [8]: 2.36 fold
B3: L-V-V-N peptide (terminal short beta-strand of the N-terminal domain of PfA, Leu179-Asn182) (peptide)
peptide: LVVN
